Results from the Human Domainome abundance scans (Beltran et al. 2025).

B1: Dynamin-binding protein, residues 242 to 304; numbered along this chain, Q6XZF7 (parent)
chain: EEPGTYGVALYRFQALEPNELDFEVGDKIRILATLEDGWLEGSLKGRTGIFPYRFVKLCPDTR

Variants of: B1
Experiment: abundance fitness (aPCA) (normalised: wild type 0, dead -1); higher = more abundant; growth selection in yeast, the domain comes from the species named
Settings: Homo sapiens

Abundance fitness of substitutions, site by site:
E41: N -0.527, D -0.732, S -0.116, W 0.056, R -0.019, Q -0.064, P -0.669, I -0.465, M 0.073, H -0.072, Y -0.274, G -0.76, C -0.115, K 0.017, L -0.256
D27: Y -0.587, S -0.695, V -0.934, T -0.656, W -0.485
R30: M -0.651, V -0.73, C -0.367, T -0.644, Y -0.398, E -0.328, N -0.306, W -0.921, K 0.268, L -0.148, S -0.41, I -0.454, F -0.462, A -0.155, P -0.15
K28: G -0.711, F -0.596, V -0.205, M -0.529, R -0.05, I -0.278, D -0.799, N -0.418, L -0.57, Q -0.604, E -0.157, S -0.535, Y -0.519, H -0.044, P -0.553, A -0.7, T -0.282
L32: Q -0.243, K -0.588, I -0.19, A -0.866, G -0.635, W -0.784, C -0.657, P -0.687, R -0.592, V -0.176, F -0.652, T -0.312, N -0.097, D -0.495, M -0.394, H -0.008, Y -0.744
L40: Y -0.259, W -0.473, K -1.11, F -0.393, S -0.325, M -0.074, I -0.244, Q -0.312, V 0.092, P -0.642, C 0.113, R -0.627, G -0.383, A 0.18, T -0.394, N -0.784
E36: F -0.711, G -0.167, W -0.612, S -0.212, P -0.171, K -0.099, I -1.02, R -0.331, C -0.434, A 0.027, T -0.277, L -0.698, Q -0.312, N -0.156, V -0.777
R47: A -0.552, E 0.018, D -0.743, C -0.578, F -0.713, H -0.283, G -0.604, L -0.453, K 0.115
I29: T -0.639, S -0.776, Y -0.808, F -0.561, N -0.845, V -0.533, A -0.702, E -0.721, C -0.839, D -0.685, L -0.573, M -0.735, G -0.738, R -0.649, H -0.634, W -0.823, Q -0.955, P -0.35
G46: Y -0.802, I -0.711, K -0.757, Q -0.753, A -0.647, E -0.473, D -0.444, H -0.73, S -0.474, P -0.611, C -0.719, V -0.6, L -0.749, F -0.687, W -0.725, M -0.769, N -0.326, R -0.612
W39: M -0.057, G -0.714, H -0.749, E -0.379, D -0.661, N -0.406, A -0.56, L -0.184, F -0.168, I -0.546, R -0.144, T -0.492, Q -0.285, S -0.56, Y -0.135, K -0.395, P -0.738
G42: F -0.745, Y -0.924, K -0.892, M -0.987, L -0.45, I -0.707, A -0.702, P -0.872, R -0.84, W -0.506, H -0.282, N -0.891, C -0.859, D -0.578, V -0.575, S -0.846, T -0.997
A33: W -0.671, P -0.429, Y -0.568, R 0.033, G -0.201, K 0.005, F -0.726, V -0.445, E -0.578, D -0.24, I -0.703, L -0.644, C -0.291, S 0.043, T -0.009, H -0.021, N 0.017, Q -0.188, M -0.438
T34: M -0.086, A -0.33, H 0.067, K -0.036, L -0.41, S -0.077, N -0.289, G -0.481, R -0.196, P -0.59, F -0.063, C -0.323, I -0.168, E -0.038, V -0.192, D -0.114, Q -0.183
D37: Q -0.298, G -0.073, C -0.195, K -0.287, H -0.274, V -0.561, A -0.452, R -0.59, P -0.476, S -0.257, L -0.663, E -0.407, I -0.89, N -0.116, M -1.02, T -0.361, F -0.56
K45: M -0.317, R -0.168, N 0.037, I -0.696, G -0.113, A -0.115, D 0.104, C -0.429, T -0.791, H 0.081, Q -0.157, L -0.502, F -0.32, E 0.013, P -0.429, Y -0.347, V -0.728, S -0.296
L35: H -0.114, I -0.131, G -0.374, M -0.413, E -0.876, Q 0.009, C -0.178, V -0.203, F -0.315, Y -0.187, N -0.544, S -0.241, T -0.339, R 0.13, A -0.304, W -0.642, K 0.137, D -0.664
G38: R -0.482, I -0.769, H -0.454, P -1.06, K -1.06, E -0.633, N -0.539, S -0.545, A -0.842, W -1.05, V -0.668, L -0.61, M -0.803, F -0.71, T -0.983
S43: W -0.393, D -0.32, V -0.326, Y -0.085, A -0.106, K -0.148, H -0.373, Q -0.133, R -0.346, E 0.219, L -0.368, N -0.308, P -0.945, M -0.127, F -0.226, I -0.539, C -0.245
I31: P -0.862, F -0.926, C -0.527, E -0.587, Q -0.084, L -0.702, D -0.743, R -0.883, W -0.901, S -0.879, Y -0.91, A -1.03, T -0.722, N -0.85, M -0.755, K -0.85, V -0.463, H -0.448, G -0.512
L44: T -0.416, M -0.58, S -0.313, D -0.385, H -0.425, R -0.367, V 0.012, I -0.133, P -0.575, C -0.159, A -0.399, W -0.506, N -0.567, G -0.868, Y -0.393
